Assay results published in paper PMC10318062 (Nature Communications, 2023).

B1: CB6 (sdFab) (Fab, V domains shown)
VH: EVQLVESGGGLVQPGGSLRLSCAASGFTVSSNYMSWVRQAPGKGLEWVSVIYSGGSTFYADSVKGRFTISRDNSMNTLFLQMNSLRAEDTAVYYCARVLPMYGDYLDYWGQGTLVTVSS
VL: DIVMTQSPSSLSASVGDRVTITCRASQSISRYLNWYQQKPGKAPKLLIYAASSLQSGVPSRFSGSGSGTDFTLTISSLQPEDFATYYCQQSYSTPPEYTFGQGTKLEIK
B2: REGN10987 (sdFab) (Fab, V domains shown)
VH: QVQLVESGGGVVQPGRSLRLSCAASGFTFSNYAMYWVRQAPGKGLEWVAVISYDGSNKYYADSVKGRFTISRDNSKNTLYLQMNSLRTEDTAVYYCASGSDYGDYLLVYWGQGTLVTVSS
VL: QSALTQPASVSGSPGQSITISCTGTSSDVGGYNYVSWYQQHPGKAPKLMIYDVSKRPSGVSNRFSGSKSGNTASLTISGLQSEDEADYYCNSLTSISTWVFGGGTKLTVL
B3: LY-CoV1404 (sdFab) (Fab, V domains shown)
VH: QITLKESGPTLVKPTQTLTLTCTFSGFSLSISGVGVGWLRQPPGKALEWLALIYWDDDKRYSPSLKSRLTISKDTSKNQVVLKMTNIDPVDTATYYCAHHSISTIFDHWGQGTLVTVSS
VL: QSALTQPASVSGSPGQSITISCTATSSDVGDYNYVSWYQQHPGKAPKLMIFEVSDRPSGISNRFSGSKSGNTASLTISGLQAEDEADYYCSSYTTSSAVFGGGTKLTVL
B4: REGN10933 (sdFab) (Fab, V domains shown)
VH: QVQLVESGGGLVKPGGSLRLSCAASGFTFSDYYMSWIRQAPGKGLEWVSYITYSGSTIYYADSVKGRFTISRDNAKSSLYLQMNSLRAEDTAVYYCARDRGTTMVPFDYWGQGTLVTVSS
VL: DIQMTQSPSSLSASVGDRVTITCQASQDITNYLNWYQQKPGKAPKLLIYAASNLETGVPSRFSGSGSGTDFTFTISGLQPEDIATYYCQQYDNLPLTFGGGTKVEIK
B5: AZD8895 (sdFab) (Fab, V domains shown)
VH: EVQLVQSGPEVKKPGTSVKVSCKASGFTFMSSAVQWVRQARGQRLEWIGWIVIGSGNTNYAQKFQERVTITRDMSTSTAYMELSSLRSEDTAVYYCAAPYCSSISCNDGFDIWGQGTMVTVSS
VL: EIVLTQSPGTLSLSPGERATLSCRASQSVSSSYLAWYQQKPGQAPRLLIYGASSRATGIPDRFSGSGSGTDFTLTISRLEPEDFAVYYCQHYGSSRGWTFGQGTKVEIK
B6: LY-CoV555 (sdFab) (Fab, V domains shown)
VH: QVQLVQSGAEVKKPGSSVKVSCKASGGTFSNYAISWVRQAPGQGLEWMGRIIPILGIANYAQKFQGRVTITADKSTSTAYMELSSLRSEDTAVYYCARGYYEARHYYYYYAMDVWGQGTAVTVSS
VL: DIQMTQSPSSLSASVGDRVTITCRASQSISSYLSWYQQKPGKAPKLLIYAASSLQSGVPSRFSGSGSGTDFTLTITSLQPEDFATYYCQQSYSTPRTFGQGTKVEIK

The binders below were run against SARS-CoV-2 hexaproline stabilized pre-fusion spike glycoprotein (S6P) (SARS-CoV-2, ancestral (Wuhan-Hu-1 …, UniProt P0DTC2, stabilised)) (assay: AlphaScreen or HTRF). Details: one partner purified.

Question: Does B1 bind?
Answer: binds

Question: Does B2 bind?
Answer: binds

Question: Does B3 bind?
Answer: binds

Question: Does B4 bind?
Answer: binds

Question: Does B5 bind?
Answer: binds

Question: Does B6 bind?
Answer: binds
